Assay [1] addresses T1, soluble recombinant rat NgR, amino acids 27 through 450, with 6xHis tag (rat).
T1 construct: 2a; made in HEK293F cells; also called Rat NgR 6x His; rNgR
T1 chain: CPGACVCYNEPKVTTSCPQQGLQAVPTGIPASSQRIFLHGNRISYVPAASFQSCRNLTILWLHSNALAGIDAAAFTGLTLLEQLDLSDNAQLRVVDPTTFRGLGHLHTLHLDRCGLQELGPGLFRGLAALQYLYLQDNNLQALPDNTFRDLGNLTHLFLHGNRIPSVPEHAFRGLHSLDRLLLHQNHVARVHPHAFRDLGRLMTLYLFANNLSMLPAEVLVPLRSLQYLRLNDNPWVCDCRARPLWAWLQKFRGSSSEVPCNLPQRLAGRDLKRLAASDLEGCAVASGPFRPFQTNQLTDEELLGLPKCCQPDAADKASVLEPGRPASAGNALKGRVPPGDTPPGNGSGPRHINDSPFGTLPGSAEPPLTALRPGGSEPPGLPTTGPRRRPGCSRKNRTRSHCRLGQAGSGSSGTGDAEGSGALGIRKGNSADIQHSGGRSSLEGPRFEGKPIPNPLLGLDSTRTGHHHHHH
As to the kind of experiment: ELISA, rat NgR coated 0.2 µg/well. The procedure: (§1) To determine the specificity of the monoclonal antibodies produced in Example 1, an ELISA using NgR-Fc (a fusion protein comprising amino acids Met 1 to Ser 447 of the human NgR and a human Fc fragment (R&D Systems)) and rat NgR (SEQ ID NO. 2a), was performed. Both ligands were immobilized on 96-well microtiter plates (Nunc Maxisorb; 0.2 μg/well). As a blocking reagent 2% bovine serum albumin (BSA) in Tris-HCL, pH 7.2 was used for 2 h at room temperature. The monoclonal antibodies were used in concentrations starting at 10,000 ng/ml. Bound antibodies were detected with a secondary anti-mouse antibody labeled with horseradish peroxidase (Sigma) and developed using 3,3′,5,5′-tetramethylbenzidine substrate (TMB, Pierce) under standard conditions. mAb50 and mAb51 specifically bound to human NgR. […] In similar experiments, mAb50 and mAb51 also specifically bound to a polypeptide consisting of amino acids of the rat NgR.
In general terms: ELISA stands for enzyme-linked immunosorbent assay.

In assay [2] the target is T2, human recombinant NgR/Fc chimera (R&D Systems, Cat. Number 1208-NG) (human, UniProt Q9BZR6 27-447).
T2 construct: range 1-447; Bought from R&D Systems; also called hNgR-Fc; human NgR-Fc; not shown: human Fc fragment
T2 sequence (looked up): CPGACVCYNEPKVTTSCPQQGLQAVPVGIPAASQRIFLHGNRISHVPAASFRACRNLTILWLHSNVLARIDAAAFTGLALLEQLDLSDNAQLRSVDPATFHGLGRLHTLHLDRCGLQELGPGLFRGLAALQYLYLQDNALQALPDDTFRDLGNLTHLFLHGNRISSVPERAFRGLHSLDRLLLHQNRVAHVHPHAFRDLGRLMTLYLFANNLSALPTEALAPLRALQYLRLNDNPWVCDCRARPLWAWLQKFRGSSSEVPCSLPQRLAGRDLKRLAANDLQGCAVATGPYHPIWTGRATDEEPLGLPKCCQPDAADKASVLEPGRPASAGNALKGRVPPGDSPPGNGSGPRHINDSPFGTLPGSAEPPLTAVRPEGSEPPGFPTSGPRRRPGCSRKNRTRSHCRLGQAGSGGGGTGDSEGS
Put plainly: Biacore, antibody captured, hNgR-Fc chimera as antigen. On the technique in general: SPR reads the build-up and loss of mass on a sensor chip optically.

Assay [3] deals with T2, human recombinant NgR/Fc chimera (R&D …). Put plainly: ELISA, human NgR-Fc coated 0.2 µg/well.
Assay [4] has as its target T1, soluble recombinant rat NgR, amino …. As to the kind of experiment: ELISA, rat NgR coated 0.2 µg/well, anti-mouse-HRP, TMB. Here is the method: as §1
Assay [5] has the same target. Put plainly: not stated.
The target of assay [6] is T2, human recombinant NgR/Fc chimera (R&D …). As to the kind of experiment: competition ELISA, human NgR-Fc coated 0.2 µg/well, blocked ligand AP-Nogo66 at 0.15 nM, AttoPhos, RFU (30min-0min). Here is the method:
To further characterize the monoclonal antibodies a competition assay similar to the binding assay of Example 2 was used to test the ability of the mAbs produced in Example 1 to inhibit AP-Nogo66 binding to human NgR-Fc. Human NgR-Fc (0.2 μg/well) was immobilized on 96-well microtiter plates (Nunc Maxisorb) in 50 mM Na-carbonate buffer pH 9 over night at 4° C. followed by a 2 h blocking step with 2% BSA in Tris-HCL, pH 7.2 at room temperature. The wells received a constant concentration of AP-Nogo66 (final concentration 0.15 nM in Tris-HCL, pH 7.2 with 0.1% BSA) and increasing concentrations of the mAbs. Plates were incubated for 90 min at room temperature. During each incubation step plates were washed with washing buffer (10 mM Tris-HCl, pH7.2 and 0.05% Tween20). Binding of AP-Nogo66 was detected with the AttoPhos substrate (Roche) and the fluorescence units were measured in the Polarstar (BMG) instrument.

For assay [7] the target is unchanged. Put plainly: ELISA, human NgR-Fc coated 0.2 µg/well, anti-mouse-HRP, TMB. Here is the method: as §1

A value given as a limit tells only on which side of the number the result lay.

This is an account of results in patent publication US20160145334A1 (AbbVie / Abbott, published 2016).

The EC50 is the midpoint of the concentration-response curve. Broadly, the Kd is the equilibrium constant for the complex coming apart. In general, koff refers to a measure of how fast the partners let go of each other. Broadly, the kon is the rate constant with which the complex forms. A word on the EC50 (read off the curve): it is the concentration needed to bring the measured effect to its halfway point. In general, IC50 refers to the concentration that inhibits the measured activity by half.

B1: mAb51 (antibody, IgG2a, V domains shown)
VH: QVQLQQPGAELVKPGASVKLSCKASGYTFITYWMHWMKQRPGQGLEWIGEIDPSDSYTDYNQKFKGKATLTVDKSSSTAYMQLSSLTSEDSAVYYCARGSNVLYVLDYWGQGTSVTVSS
VL: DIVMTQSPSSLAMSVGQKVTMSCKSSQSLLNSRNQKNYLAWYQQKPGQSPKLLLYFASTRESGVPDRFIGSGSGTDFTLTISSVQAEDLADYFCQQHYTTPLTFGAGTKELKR
notes: also called Antibody Clone 51; ATCC No. PTA-8384
For B1, the EC50 in assay [1] is less than 0.02 µg/mL. Also, in assay [2], the Kd was determined as 0.108 nM, the koff stood at 5.88e-05 s⁻¹ and the kon is 544000 M⁻¹ s⁻¹. The EC50 in assay [3] was less than 0.02 µg/mL. For the same molecule, the “EC50 (read off the curve)” value in assay [4] was roughly 30 ng/mL. Moreover, in assay [5], the IC50 is roughly 0.03 nM. Moreover, the “IC50 (read off the curve)” value in assay [6] was roughly 2 nM. In assay [7], the “EC50 (read off the curve)” value is roughly 6 ng/mL.
